# Assay results published in article PMC4682084 (Scientific Reports, 2015).
# Positions count from the first letter of the chain named.
# B1: KMTR2 LkN53R mutant (Asn53 to Arg in the light kappa chain) (antibody, V domains shown)
# VH: QVQLVQSGAEMKKPGASVKVSCKTSGYTFTNYKINWVRQAPGQGLEWMGWMNPDTDSTGYPQKFQGRVTMTRNTSISTAYMELSSLRSEDTAVYYCARSYGSGSYYRDYYYGMDVWGQGTTVTVSS
# VL: EIVLTQSPATLSLSPGERATLSCRASQSVSSYLAWYQQKPGQAPRLLIYDASRRATGIPARFSGSGSGTDFTLTISSLEPEDFAVYYCQQRSNWPLTFGGGTKVEIK
# notes: as the heavy chain of m5; Fab part (Gln1-Ser226) in PDB 3X3F and 3X3G; as the light kappa chain of m5 (Glu1-Cys214 in PDB 3X3F and 3X3G) with Asn53 changed to Arg; Whole IgG made from the N5KG4-KMTR2 vector by site-directed mutagenesis; copies: 2 + 2
# B2: Fab fragment derived from KMTR2 (KMTR2-Fab) (Fab, V domains shown)
# VH: B1 VH
# VL: B1 VL with R53N
# notes: heavy chain of KMTR2-Fab; light kappa chain of KMTR2; Fully human monoclonal antibody from KM mice; source: papain digestion of recombinant KMTR2, purified by cation-exchange chromatography
# What was measured:
# [1] = target: fully human monoclonal agonistic anti-TRAIL-R2 antibody KMTR2 (human)
# [2] = target: T1, endogenous TRAIL-R2 in Colo205 cells (human (endogenous in Colo205), UniProt O14763); assay: immunostaining of cells or tissue; Colo205 cells incubated with gel filtration fractionated monomeric antibody, 100 ng/mL, 1.5 h 37 °C; Alexa 488-labeled anti-human IgG Fab; confocal microscopy; conditions: one partner purified
# T1 construct: TRAIL receptor 2 (TRAIL-R2, DR5), endogenous on the human colorectal adenocarcinoma cell line Colo205; also called DR5; membrane TRAIL-R2; source: endogenous, on Colo205 cells
# [3] = target: T2, ecTRAIL-R2:Fc fusion protein (human, UniProt O14763); assay: SEC; antibody mixed with ecTRAIL-R2:Fc in PBS at a molar ratio of 1:1, 30 min 37 °C; Superdex 200 10/300 GL in D-PBS(-); conditions: both partners purified
# T2 construct: TRAIL receptor 2 (TRAIL-R2, DR5), human, extracellular region, residues Ala54-Lys181; also called ecTRAIL-R2 fused with Fc; soluble TRAIL-R2 fused with the Fc region of IgG; source: CHO cells, purified (HiTrap rProtein A FF); not shown: Fc (human IgG1), C-terminal, kept
# [4] = target: T3, extracellular region of TRAIL-R2 (ecTRAIL-R2) (human, UniProt O14763); assay: SEC-MALS; ecTRAIL-R2 mixed with excess KMTR2-Fab, RT 1 h; Superdex 200 HR 10/30, 20 mM HEPES pH 7.2, 0.2 M NaCl; multi-angle light scattering (mini-DAWN); conditions: both partners purified
# T3 construct: TRAIL receptor 2 (TRAIL-R2, DR5), human, extracellular region, residues Ala54-Lys181; also called DR5; source: CHO cells as ecTRAIL-R2:Fc fusion, purified (rProtein A), digested with enterokinase, cation-exchange chromatography; not shown: Fc (human IgG1), C-terminal, cleaved
molecule,measurement,setting,value
fully human monoclonal agonistic anti-TRAIL-R2 antibody KMTR2,"inhibition of the proliferation of Colo205 cells (MTS), 1-100 ng/mL, without cross-linking reagent",[1],6 to 7 ng/mL
B1,binding result,[2],binds
same,binding result,[3],binds
B2,stoichiometry N,[4],1
